Tests used:
[1] = target: RNAP core from E. coli (EcoRNAP core) (E. coli) (UniProt P0A8V2)
[2] = target: RNAP core from E. coli (EcoRNAP core) (E. coli) (UniProt P0A8V2); remark: listed apart in the source
[3] = target: RNA polymerase core (EcoRNAP) (Escherichia coli, UniProt P0A7Z4;P0A8V2;P0A8T7;P0A800 1-329;1-1342;1-1407;2-91); test: pull-down (Ni-agarose RNA retention); 1 M NaCl wash; 40 mM HEPES pH 7.9, 5 mM MgCl2, 50 mM NaCl, 5% glycerol; binding to Ni-NTA at 18 C, washes with 250 mM NaCl (1 M for core controls), labeling at 22 C; settings: protein: recombinant; tags: C-terminal 6xHis on rpoC; chain copies: 2;1;1;1; 9-bp downstream duplex, 10-nt 3' template overhang; 13-nt RNA with unpaired 5' end
[4] = target: full-length σ^70 subunit of E. coli RNA polymerase (E. coli) (UniProt P00579)
Chain of full-length σ^70 subunit of E. coli RNA polymerase (E. coli) (P00579 whole entry): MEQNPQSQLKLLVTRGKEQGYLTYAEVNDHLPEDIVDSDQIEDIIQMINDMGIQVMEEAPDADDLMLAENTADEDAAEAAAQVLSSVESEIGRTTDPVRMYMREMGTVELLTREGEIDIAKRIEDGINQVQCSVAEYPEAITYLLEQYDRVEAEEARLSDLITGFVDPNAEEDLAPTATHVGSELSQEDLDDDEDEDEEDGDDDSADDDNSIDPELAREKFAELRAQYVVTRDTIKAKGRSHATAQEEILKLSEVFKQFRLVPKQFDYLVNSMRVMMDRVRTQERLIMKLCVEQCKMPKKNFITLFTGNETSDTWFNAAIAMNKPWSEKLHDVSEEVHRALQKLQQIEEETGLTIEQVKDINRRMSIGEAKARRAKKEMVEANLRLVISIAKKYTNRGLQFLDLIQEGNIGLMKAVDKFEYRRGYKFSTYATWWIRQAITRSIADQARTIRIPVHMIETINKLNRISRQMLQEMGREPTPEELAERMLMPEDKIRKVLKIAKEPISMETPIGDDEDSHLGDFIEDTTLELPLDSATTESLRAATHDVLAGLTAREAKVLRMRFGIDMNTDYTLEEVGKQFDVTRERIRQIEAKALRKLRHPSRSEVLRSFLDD

Chain of RNAP core from E. coli (EcoRNAP core) (E. coli) (P0A8V2 whole entry, looked up): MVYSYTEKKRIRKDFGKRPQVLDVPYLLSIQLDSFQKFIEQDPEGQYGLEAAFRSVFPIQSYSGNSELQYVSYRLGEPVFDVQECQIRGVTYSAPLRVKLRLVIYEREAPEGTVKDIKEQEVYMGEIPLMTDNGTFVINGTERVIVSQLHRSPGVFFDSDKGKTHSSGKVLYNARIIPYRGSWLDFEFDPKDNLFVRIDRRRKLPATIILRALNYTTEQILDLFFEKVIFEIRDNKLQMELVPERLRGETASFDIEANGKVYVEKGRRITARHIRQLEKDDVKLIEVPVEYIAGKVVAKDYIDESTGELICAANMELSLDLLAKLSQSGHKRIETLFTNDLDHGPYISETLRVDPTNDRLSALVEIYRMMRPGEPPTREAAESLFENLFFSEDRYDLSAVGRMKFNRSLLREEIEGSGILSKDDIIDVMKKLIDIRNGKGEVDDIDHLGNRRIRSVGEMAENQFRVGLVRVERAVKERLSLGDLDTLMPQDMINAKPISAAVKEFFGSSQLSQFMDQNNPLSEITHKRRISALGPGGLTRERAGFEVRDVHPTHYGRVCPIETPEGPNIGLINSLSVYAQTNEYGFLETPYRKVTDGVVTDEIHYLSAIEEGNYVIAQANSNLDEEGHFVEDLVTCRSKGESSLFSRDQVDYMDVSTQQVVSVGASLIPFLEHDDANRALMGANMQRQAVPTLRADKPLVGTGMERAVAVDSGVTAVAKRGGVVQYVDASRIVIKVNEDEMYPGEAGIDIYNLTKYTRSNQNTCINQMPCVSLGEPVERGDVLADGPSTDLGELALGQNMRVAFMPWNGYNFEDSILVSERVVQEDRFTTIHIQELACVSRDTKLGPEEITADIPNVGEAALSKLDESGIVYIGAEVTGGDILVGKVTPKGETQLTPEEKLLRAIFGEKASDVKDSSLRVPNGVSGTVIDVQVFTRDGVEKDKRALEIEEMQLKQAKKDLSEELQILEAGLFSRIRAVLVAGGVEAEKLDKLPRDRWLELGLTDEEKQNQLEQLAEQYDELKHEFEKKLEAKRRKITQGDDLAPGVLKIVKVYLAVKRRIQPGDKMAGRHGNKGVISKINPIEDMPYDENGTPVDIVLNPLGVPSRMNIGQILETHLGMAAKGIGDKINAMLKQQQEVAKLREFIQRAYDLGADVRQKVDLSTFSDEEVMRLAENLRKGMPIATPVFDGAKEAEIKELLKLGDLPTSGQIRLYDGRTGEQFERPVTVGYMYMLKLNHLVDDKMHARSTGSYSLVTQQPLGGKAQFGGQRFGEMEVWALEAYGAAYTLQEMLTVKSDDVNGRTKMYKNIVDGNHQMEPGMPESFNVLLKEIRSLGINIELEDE

Q: Which translocation efficiency (fraction of 5-nt RNA) in extension of the 2-nt primer GpC on the LDT scaffold [1] does the source give for “σΔ4 fragment of σ^70 (residues 1–529) (from UniProt P00579 1-529) (domain or fragment)” here?
A: < 50%

Q: Which translocation efficiency (fraction of 5-nt RNA) in extension of the 2-nt primer GpC on the LDT scaffold [1] does the source give for “σ_(Δ3–4) fragment of σ^70 (residues 1–448) (from UniProt P00579 1-448) (domain or fragment)” here?
A: < 50%

Q: Which translocation efficiency (fraction of 5-nt RNA) in extension of the 2-nt primer GpC on the LDT scaffold; core alone about 40% [2] does the source give for “full-length σ^70 subunit of E. coli RNA polymerase (from UniProt P00579 1-613) (natural protein)” here?
A: 95%

Q: Which translocation efficiency (fraction of 5-nt RNA) in extension of the 2-nt primer GpC on the LDT scaffold [1] does the source give for “σ_(Δ4.2) fragment of σ^70 (residues 1–553) (from UniProt P00579 1-553) (domain or fragment)” here?
A: < 50%

B1: SDT scaffold + pRNA13 (mixed)
RNA: AAUUGUGAGCGGA
DNA 1: TGCAATTGTCATCCGCTCA
DNA 2: ACAATTGCA
Q: Does B1 bind [3]?
A: binds

B2: T4 phage coactivator protein AsiA (natural protein)
chain: MNKNIDTVREIITVASILIKFSREDIVENRANFIAFLNEIGVTHEGRKLNQNSFRKIVSELTQEDKKTLIDEFNEGFEGVYRYLEMYTNK
Q: B2 was tested. Which inhibition by 1 μM AsiA of abortive transcription by σ^70-EcoRNAP at the lacUV5 promoter (AsiA used to disrupt the pair σ4.2 of σ^70 and β-FTH of the core) [4] did it give?
A: 85%

Q: And the inhibition by 1 μM AsiA of de novo 3-nt RNA synthesis by σ^70-EcoRNAP on the SDT2 scaffold (AsiA used to disrupt the pair σ4.2 of σ^70 and β-FTH of the core) [4]?
A: 50%
